{
  "source": "patent US9119806B2",
  "about": "“Culturing circular ssDNA viruses for the production of vaccines” (priority 2007, dated 2015)",
  "molecules": {"B1": {"name": "IFN-gamma: Porcine interferon gamma purchased from R&D systems (protein, UniProt P17803 24-166, looked up)", "Interferon gamma": "QAPFFKEITILKDYFNASTSDVPNGGPLFLEILKNWKEESDKKIIQSQIVSFYFKFFEIFKDNQAIQRSMDVIKQDMFQRFLNGSSGKLNDFEKLIKIPVDNLQIQRKAISELIKVMNDLSPRSNLRKRKRSQTMFQGQRASK"}},
  "system": "PCV2 strain Stoon-1010 in PK-15 cells",
  "test": "Progeny PCV2 production in PK-15 cells with acidification inhibitors and/or IFN-gamma",
  "type": "cell-based, Porcine circovirus 2",
  "details": "IFN-gamma 500 U/ml pre-treatment",
  "procedure": "For progeny virus production assays, 2×10^5 cells were seeded in every well of 24-well cell culture plates. Cells were pre-treated with or without 500 U/ml IFN-gamma at 6 hours post seeding. At 24 h post-seeding, cells were washed and inoculated with the prototype PCV2 strain Stoon-1010 at an m.o.i. of 0.3 for 1 hour at 37° C. The viral inoculum was washed-off and cells were further incubated in 1 ml of culture medium with or without 25 mM ammonium chloride, 125 μM chloroquine diphosphate and/or 6 μM monensin for 24 hours. Then, the culture medium with or without endosomal-lysosomal system acidification inhibitors was replaced with fresh culture medium without inhibitors. At 1, 24, 48 and 72 hours post-inoculation the supernatant was collected. Subsequently the culture was washed once with 1 ml PBS. Both the supernatant and the washing fluid were centrifuged for 10 minutes at 15,000×g to pellet cells and debris. The centrifuged supernatant and washing fluids were combined and considered to contain the extracellular virus. Both pellets and cell cultures were freeze-thawed three times and considered to contain the intracellular virus. Intra- and extracellular virus titres were determined by titration on PCV-negative PK-15 cells as described previously. Viral antigens were detected using an IPMA as described above and PCV2 titre was expressed as log10 TCID50 per 10^5 cells.",
  "data": [
    {"molecule": "B1", "values": [
      {"measurement": "PCV2 titres at 1 hpi", "setting": "1 hpi", "value": 2.0, "unit": "TCID50 per 10^5 cells"},
      {"measurement": "PCV2 titres at 24 hpi", "setting": "24 hpi", "value": 2.1, "unit": "TCID50 per 10^5 cells"},
      {"measurement": "PCV2 titres at 48 hpi", "setting": "48 hpi", "value": 3.4, "unit": "TCID50 per 10^5 cells"},
      {"measurement": "PCV2 titres at 72 hpi", "setting": "72 hpi", "value": 3.9, "unit": "TCID50 per 10^5 cells"}
    ]}
  ]
}
